Measurements taken from PMC3507880, “Rationale-Based Engineering of a Potent Long-Acting FGF21 Analog for the Treatment of Type 2 Diabetes” (PLoS ONE, 2012).
Substitutions are numbered along the chain they refer to.

T1: human βKlotho (human, UniProt Q86Z14 1-996)
T1 sequence (looked up): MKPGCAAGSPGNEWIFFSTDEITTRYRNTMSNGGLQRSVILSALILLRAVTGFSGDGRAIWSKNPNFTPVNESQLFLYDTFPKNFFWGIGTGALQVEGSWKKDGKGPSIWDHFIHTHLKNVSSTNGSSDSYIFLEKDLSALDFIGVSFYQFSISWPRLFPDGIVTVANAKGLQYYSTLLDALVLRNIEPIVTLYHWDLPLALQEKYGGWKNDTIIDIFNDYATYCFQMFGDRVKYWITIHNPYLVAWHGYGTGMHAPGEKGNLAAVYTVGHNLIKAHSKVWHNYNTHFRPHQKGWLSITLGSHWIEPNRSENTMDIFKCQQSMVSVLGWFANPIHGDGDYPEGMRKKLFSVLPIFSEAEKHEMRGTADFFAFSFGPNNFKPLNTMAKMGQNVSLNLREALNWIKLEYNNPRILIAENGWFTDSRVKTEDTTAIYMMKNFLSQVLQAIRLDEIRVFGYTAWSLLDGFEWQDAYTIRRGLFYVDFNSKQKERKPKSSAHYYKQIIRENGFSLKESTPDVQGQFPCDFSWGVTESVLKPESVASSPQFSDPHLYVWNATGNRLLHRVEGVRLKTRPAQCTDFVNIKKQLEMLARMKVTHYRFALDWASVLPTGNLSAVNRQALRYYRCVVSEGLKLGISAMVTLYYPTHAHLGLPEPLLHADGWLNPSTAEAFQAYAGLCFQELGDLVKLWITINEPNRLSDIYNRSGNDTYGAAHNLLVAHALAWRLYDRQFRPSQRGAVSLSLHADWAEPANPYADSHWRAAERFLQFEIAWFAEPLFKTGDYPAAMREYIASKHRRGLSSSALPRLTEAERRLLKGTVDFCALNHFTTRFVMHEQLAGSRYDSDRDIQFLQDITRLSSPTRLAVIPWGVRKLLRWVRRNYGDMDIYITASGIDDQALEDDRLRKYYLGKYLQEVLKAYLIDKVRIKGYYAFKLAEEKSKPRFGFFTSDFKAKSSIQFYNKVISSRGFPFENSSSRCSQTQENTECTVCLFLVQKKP

B1: Fc-FGF21(RG) (protein)
chain: HPIPDSSPLLQFGGQVRQRYLYTDDAQQTEAHLEIREDGTVGGAADQSPESLLQLKALKPGVIQILGVKTSRFLCQRPDGALYGSLHFDPEACSFRERLLEDGYNVYQSEAHGLPLHLPGNKSPHRDPAPRGPARFLPLPGLPPALPEPPGILAPQPPDVGSSDPLSMVGGSQGRSPSYAS
B2: wild type human mature FGF21 (protein)
chain: B1 chain with R98L, G171P
B3: Fc-FGF21 (N-terminal Fc fusion of human mature FGF21, wild type) (Fc fusion, UniProt Q9NSA1 29-209, looked up)
chain: B1 chain with R98L, G171P

What was measured:
Q9NSA1 = assay: SEC; SEC-HPLC (Bio-Sil SEC-250, 2x PBS with 2% isopropyl alcohol); 65 mg/ml in 10 mM potassium phosphate, 5% sorbitol, pH 8.0; stored at 25°C or 4°C for 2 to 9 days; high molecular weight species as % of total
human βKlotho = molecular target: T1, human βKlotho; assay: cell-based or functional assay

Row | Binder | aggregates, percent of total, over 9 days (Q9NSA1) | high molecular aggregates, percent of total, day 5 (Q9NSA1) | Elk1-dependent luciferase reporter in 293T cells stably overexpressing human βKlotho or CHO cells overexpressing human βKlotho and human FGFR1c; maximal activity relative to native FGF21 (human βKlotho)
1 | B1 | the amount of aggregates remained below 3% at all tested conditions | – | –
2 | B2 | – | the high molecular aggregates accounted for 50% and 25% of total native FGF21 and Fc-FGF21, respectively | –
3 | B3 | – | the high molecular aggregates accounted for 50% and 25% of total native FGF21 and Fc-FGF21, respectively | ~80%
